Residue numbers refer to the chain shown, from its start.
T1: CtTrl1-LIG WT (tRNA ligase LIG domain) (Chaetomium thermophilum (syn. …, UniProt G0S6G2 1-414))
T1 sequence: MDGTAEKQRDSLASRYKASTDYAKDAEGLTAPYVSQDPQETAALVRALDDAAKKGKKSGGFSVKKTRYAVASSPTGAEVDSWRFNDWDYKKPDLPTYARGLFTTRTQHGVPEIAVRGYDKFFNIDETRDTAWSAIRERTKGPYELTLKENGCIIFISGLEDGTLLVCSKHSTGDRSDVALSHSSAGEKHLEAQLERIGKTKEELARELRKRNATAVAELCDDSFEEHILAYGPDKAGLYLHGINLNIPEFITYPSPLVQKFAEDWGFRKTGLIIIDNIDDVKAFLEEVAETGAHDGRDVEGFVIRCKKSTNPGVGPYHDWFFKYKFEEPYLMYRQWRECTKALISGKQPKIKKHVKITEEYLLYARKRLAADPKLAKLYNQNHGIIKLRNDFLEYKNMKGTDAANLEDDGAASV

T2: CtTrl1-LIG K148N (Chaetomium thermophilum (syn. …, UniProt G0S6G2 1-414, K148N))
T2 sequence: T1 sequence with K148N

B1: sctRNAPhe-3'exon-7nt (dsRNA)
RNA 1: AUCUGGA
RNA 2: AUCUGGA
modifications: 5'-phosphate; one strand 5'-adenylylated (AppRNA) in the crystal
B2: ASL-4U (structured_RNA)
RNA: AUCUGGAUUUUGCCAGACUGAAG
modifications: 5'-phosphate; terminal phosphate at 3' end (ordered as [Phos]; 2'-P form in the EMSA not stated)

Key:
[1] = biological target: T1, CtTrl1-LIG WT (tRNA ligase LIG domain); assay: X-ray crystallography
[2] = biological target: T1, CtTrl1-LIG WT (tRNA ligase LIG domain); assay: EMSA
[3] = biological target: T2, CtTrl1-LIG K148N; assay: EMSA

Row | Binder | binding result [1] | binding result [2] | binding result [3]
1 | B1 | binds |  | 
2 | B2 |  | binds | binds
